Data on five substances can be found in paper PMC12311110.

The target of assay [1] is hRetromer (recombinant Retromer trimer) (human) (UniProt Q96QK1). Nature of the assay: ITC; Microcal PEAQ-ITC, 25 °C; 1 mM peptide or 530 µM TBC1D13 titrated into 14 µM Retromer; single-site model; mean of triplicate titrations. (In ITC the heat of successive injections is recorded.)
The next assay deals with endogenous VPS26 (UniProt O75436). The experiment in a line: GFP-based co-IP, western blot band quantification. The note with it: HEK293T cells, transient transfection; normalised to GFP band intensity; n = 3; parent: est. 100; read off a plot. (In general: A western blot detects proteins with antibodies after separation by electrophoresis.)

Chain of recombinant full-length human TBC1D13 (Q9NVG8 whole entry): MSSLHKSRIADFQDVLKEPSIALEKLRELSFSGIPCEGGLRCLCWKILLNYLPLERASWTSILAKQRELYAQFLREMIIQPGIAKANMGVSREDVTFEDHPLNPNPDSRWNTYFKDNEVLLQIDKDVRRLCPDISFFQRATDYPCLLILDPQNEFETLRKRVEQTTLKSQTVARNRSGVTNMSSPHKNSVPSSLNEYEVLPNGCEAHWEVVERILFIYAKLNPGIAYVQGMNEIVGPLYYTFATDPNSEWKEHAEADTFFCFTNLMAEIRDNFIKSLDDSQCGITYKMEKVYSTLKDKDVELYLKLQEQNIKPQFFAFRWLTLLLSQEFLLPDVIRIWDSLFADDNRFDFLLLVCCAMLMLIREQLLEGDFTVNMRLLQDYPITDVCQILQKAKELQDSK

For human DENND4C peptide 1189-1206, in assay [1], the Kd is 15.4 µM and the dH is -10.1 kcal/mol.
As to “recombinant full-length human TBC1D13 (from UniProt Q9NVG8 1-400) (natural protein)”, in assay [1], the Kd amounted to 6.3 µM and the dH is -8.1 kcal/mol.
For “GFP-VPS29 wild-type (from UniProt Q9UBQ0) L152E”, the percent of parent (relative intensity (WT = 100)) with endogenous VPS26 turned out to be 110.
On the same count and under the same terms, the figure for “VPS35-GFP WT (from UniProt Q96QK1) I218D” is 120; for “GFP-VPS29 wild-type (from UniProt Q9UBQ0) V174D” it is 170.

For orientation: Kd means the equilibrium constant for the complex coming apart.
